{
  "source": "patent US20150064747A1",
  "target": "EBV DNA polymerase BALF5 catalytic subunit, full-length (Epstein-Barr Virus) (UniProt P03198)",
  "sequence (P03198 1-1015, tags or fused parts left off)": "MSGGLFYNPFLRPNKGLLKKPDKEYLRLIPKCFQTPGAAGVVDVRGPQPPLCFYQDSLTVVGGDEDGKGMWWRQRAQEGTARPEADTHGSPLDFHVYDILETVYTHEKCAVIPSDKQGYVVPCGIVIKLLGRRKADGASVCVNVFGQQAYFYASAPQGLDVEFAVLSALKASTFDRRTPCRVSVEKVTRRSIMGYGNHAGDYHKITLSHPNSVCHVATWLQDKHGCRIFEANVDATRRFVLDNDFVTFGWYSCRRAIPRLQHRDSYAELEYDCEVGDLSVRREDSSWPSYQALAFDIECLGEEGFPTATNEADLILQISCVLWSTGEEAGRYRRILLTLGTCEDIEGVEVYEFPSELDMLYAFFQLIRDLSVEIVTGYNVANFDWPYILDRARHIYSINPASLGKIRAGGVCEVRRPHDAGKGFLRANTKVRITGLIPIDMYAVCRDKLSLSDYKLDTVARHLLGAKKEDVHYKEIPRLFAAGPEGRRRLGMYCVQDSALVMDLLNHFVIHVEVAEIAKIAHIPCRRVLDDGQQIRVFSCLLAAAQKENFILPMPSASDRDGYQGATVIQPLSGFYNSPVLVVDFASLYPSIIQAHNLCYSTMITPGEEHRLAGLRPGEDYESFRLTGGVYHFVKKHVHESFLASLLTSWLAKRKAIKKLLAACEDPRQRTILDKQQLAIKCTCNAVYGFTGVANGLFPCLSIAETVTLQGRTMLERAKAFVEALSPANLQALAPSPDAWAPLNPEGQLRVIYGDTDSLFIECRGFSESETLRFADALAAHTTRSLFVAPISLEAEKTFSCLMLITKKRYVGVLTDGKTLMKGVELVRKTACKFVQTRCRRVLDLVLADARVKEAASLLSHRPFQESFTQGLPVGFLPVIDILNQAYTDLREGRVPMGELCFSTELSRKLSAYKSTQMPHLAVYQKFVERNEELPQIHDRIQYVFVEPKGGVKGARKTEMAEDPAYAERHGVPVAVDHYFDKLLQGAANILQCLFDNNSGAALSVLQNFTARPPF",
  "assay": "cell-based or functional assay",
  "data": [
    {"substance": "EBV BMRF1 processivity factor, full-length (from UniProt P03191 1-404)", "values": [
      {"measurement": "DNA polymerase elongation activity on activated calf thymus DNA at 100 mM ammonium sulfate", "result": "> 100", "unit": "fold"}
    ]}
  ]
}
